Results on 2 substances are retold here after patent US20030211470A1.

pEC50: −log10 of the molar value.

A word on the pEC50: it is −log10 of the EC50, conventionally taken in molar units.

Assay [1] concerns the target HIV-1IIIB gp120/gp41 stably expressed on CHO cells (HIV-1 IIIB). Put plainly: cell-based or functional assay.
Assay [2] deals with recombinant gp120 from the laboratory-adapted strain HIV-1LAI (HIV-1 LAI) (UniProt P03377). In words: modified ELISA; gp120 captured on plate, CD4-IgG2 titrated, 1 h at 37 C, 50% of maximal binding. A general note: An ELISA detects its analyte on a solid surface through an enzyme-linked reagent.
For assay [3], the target named is recombinant gp120 from the primary isolate HIV-1JR-FL (HIV-1 JR-FL) (UniProt P20871). Described as above.

In assay [1], “CD4-gamma2 chimeric heavy chain homodimer (Fc fusion)” returned an IC50 (nM), syncytium inhibition of 40 nM and an IC50 (µg/ml), syncytium inhibition of 4.03 µg/mL.
In the case of “CD4-IgG2 chimeric heterotetramer (Fc fusion)”, in assay [1], the IC50 (nM), syncytium inhibition came out at 9 nM; the IC50 (µg/ml), syncytium inhibition is 1.81 µg/mL; the Relative Potency (mass), relative to sCD4 turned out to be 5.1 fold; the Relative Potency (molarity), relative to sCD4 was 22.2 fold. The pEC50 in assay [2] was 8.90. Besides, in assay [3], the pEC50 is 9.19.
